Measured values reported in patent US12297272B2, “IgG Fc variants for veterinary use” (Elanco US Inc., priority 2017, dated 2025).
Residue numbers refer to the chain shown, from its start.

How the values were obtained:
Protein A = Protein A (Staphylococcus aureus, UniProt P38507); settings: for Protein A Binding: Wild-type Canine IgG Fc
Experimental: In some embodiments, the KD of an IgG Fc polypeptide, such as a variant IgG Fc polypeptide, to Protein A or to C1q or to CD16 is measured by using biolayer interferometry assays using a biosensor, such as an Octet® System (Pall ForteBio LLC, Fremont, CA) according to the supplier's instructions. In brief, biotinylated Protein A or C1q or CD16 is bound to the sensor tip and the association of IgG Fc polypeptide is monitored for a specified time or until steady state is reached. Dissociation may be monitored for a specified time or until steady state is reached. A buffer only blank curve is subtracted to correct for any drift. The data are fit to a 2:1 binding model using ForteBio data analysis software to determine association rate constant (kon), dissociation rate constant (koff), and the Kd. The equilibrium dissociation constant (KD) is calculated as the ratio of koff/kon. The term “kon” refers to the rate constant for association of a molecule X to its partner Y and the term “koff” refers to the rate constant for dissociation of a molecule X or partner Y from the molecule X/partner Y complex.
Binding analysis may be performed using an Octet biosensor. Briefly, the target molecule (e.g., Protein A, C1q, CD16, etc.) may be biotinylated and free unreacted biotin removed (e.g., by dialysis). The biotinylated target molecule is captured on streptavidin sensor tips. Association of the target molecule with various concentrations (e.g., 10 μg/mL) of IgG Fc polypeptide is monitored for a specified time or until steady state is reached. Dissociation is monitored for a specified time or until steady state is reached. A buffer only blank curve may be subtracted to correct for any drift. The data are fit to a 1:1 binding model using ForteBio™ data analysis software to determine the kon, koff, and the Kd.

C1q [1] = target: T1, C1q (Homo sapiens, UniProt P02745+P02746+P02747); assay: C1q binding of IgG Fc polypeptides (Octet biolayer interferometry described); settings: for C1q Binding: Wild-type Canine IgG Fc; on C1q binding: key: (−) denotes low or no measurable binding activity
Description: (§1) Binding analysis may be performed using an Octet biosensor.

CD16 = CD16 (Homo sapiens, UniProt P08637); assay: CD16 binding of IgG Fc polypeptides (Octet biolayer interferometry described); settings: for CD16 Binding: Wild-type Canine IgG Fc
Description: as §1

[2] = Differential scanning fluorimetry, stability at various pH; format: physicochemical; settings: n = 3, 10 μg construct
Description: Furthermore, differential scanning fluorimetry was used to assess the stability of the contiguous polypeptides at various pH, as reflected by mean melting point temperature (n=3) (Table 9, below). The increased stability of the variant feline IgG2 hinge is most evident at pH 6.

C1q [3] = target: T1, C1q; assay: Binding between human C1q and canine IgG-B Fc fusion protein; settings: compared to a fusion protein comprising wild-type canine IgG-B Fc
Description: as §1

T1 sequence (P02745 23-245): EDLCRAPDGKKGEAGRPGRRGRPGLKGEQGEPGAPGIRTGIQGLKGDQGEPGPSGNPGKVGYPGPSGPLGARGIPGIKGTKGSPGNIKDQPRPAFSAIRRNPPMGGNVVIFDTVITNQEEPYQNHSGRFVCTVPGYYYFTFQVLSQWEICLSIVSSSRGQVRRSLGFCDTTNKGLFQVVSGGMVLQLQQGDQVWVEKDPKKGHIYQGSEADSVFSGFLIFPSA
T1 sequence (P02746 28-253): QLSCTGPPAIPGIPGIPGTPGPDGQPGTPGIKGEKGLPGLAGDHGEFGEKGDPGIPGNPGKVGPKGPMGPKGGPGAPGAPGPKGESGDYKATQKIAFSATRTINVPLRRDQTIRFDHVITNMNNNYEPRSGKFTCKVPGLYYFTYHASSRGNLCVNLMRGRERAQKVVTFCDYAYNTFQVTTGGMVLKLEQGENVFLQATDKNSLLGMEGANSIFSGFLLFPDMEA
T1 sequence (P02747 29-245): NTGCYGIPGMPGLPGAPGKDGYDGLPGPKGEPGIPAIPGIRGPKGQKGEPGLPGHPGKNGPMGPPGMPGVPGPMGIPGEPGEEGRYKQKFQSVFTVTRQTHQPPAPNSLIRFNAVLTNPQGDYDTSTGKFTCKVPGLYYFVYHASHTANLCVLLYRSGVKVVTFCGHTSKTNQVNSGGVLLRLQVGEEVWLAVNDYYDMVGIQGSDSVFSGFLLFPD
CD16, sequence (P08637 17-254): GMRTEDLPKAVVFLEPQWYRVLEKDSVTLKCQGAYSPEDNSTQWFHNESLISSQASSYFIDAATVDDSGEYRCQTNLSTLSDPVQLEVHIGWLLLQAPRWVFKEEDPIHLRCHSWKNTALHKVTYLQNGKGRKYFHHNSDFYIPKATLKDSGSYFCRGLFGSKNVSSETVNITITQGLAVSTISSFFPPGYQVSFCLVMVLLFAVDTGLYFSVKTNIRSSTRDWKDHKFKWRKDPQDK

B1: canine IgG-A Fc: wild-type canine IgG-A Fc polypeptide (protein)
chain: PVPEPLGGPSVLIFPPKPKDILRITRTPEVTCVVLDLGREDPEVQISWFVDGKEVHTAKTQSREQQFNGTYRVVSVLPIEHQDWLTGKEFKCRVNHIDLPSPIERTISKARGRAHKPSVYVLPPSPKELSSSDTVSITCLIKDFYPPDIDVEWQSNGQQEPERKHRMTPPQLDEDGSYFLYSKLSVDKSRWQQGDPFTCAVMHETLQNHYTDLSLSHSPGK
modifications: Wild-type canine IgG-A Fc , Protein A -, C1q -, CD16
notes: wild-type canine IgG-A Fc polypeptide
For B1, the “Protein A binding affinity” value (Protein A) was “weak or no measurable Protein A binding affinity”, the “Protein A Binding” value (Protein A) was “−” and the “binding affinity to C1q” value (C1q [1]) was “weak or no measurable binding affinity to C1q”. For the same molecule, the “C1q Binding” value (C1q [1]) was “−” and the “CD16 Binding” value (CD16) was “−”.

B2: GLP1-G8/GLP1-2G_III_WTfeIgG2: Formula III contiguous polypeptide: GLP1-G8 (7-35), GLP1 (7-35), two flexible linkers, 2G C-terminal extension, wildtype feline IgG2 Fc (protein)
chain: HGEGTFTSDVSSYLEGQAAKEFIAWLVKGGGGSGGGGSGGGGSGGGGSPKTASTIESKTGEGPKCPVPEIPGAPSVFIFPPKPKDTLSISRTPEVTCLVVDLGPDDSNVQITWFVDNTEMHTAKTRPREEQFNSTYRVVSVLPILHQDWLKGKEFKCKVNSKSLPSAMERTISKAKGQPHEPQVYVLPPTQEELSENKVSVTCLIKGFHPPDIAVEWEITGQPEPENNYQTTPPQLDSDGTYFLYSRLSVDRSHWQRGNTYTCSVSHEALHSHHTQKSLTQSPGKGGGGSGGGGHAEGTFTSDVSSYLEGQAAKEFIAWLVKGGG
modifications: Synthetic GLP1-G8/GLP-2G_III_ WTfeIgG2
notes: Formula III contiguous polypeptide: GLP1-G8 (7-35), GLP1 (7-35), two flexible linkers, 2G C-terminal extension, wildtype feline IgG2 Fc
With B2 the “Mean Melting Point Temperature (Tm)” value ([2]; pH 6) was 55.2 °C, the “Mean Melting Point Temperature (Tm)” value ([2]; pH 7) was 55.7 °C and the “Mean Melting Point Temperature (Tm)” value ([2]; pH 8) was 54.2 °C.

B3: canine IgG-B Fc: wild-type canine IgG-B Fc polypeptide (protein)
chain: PAPEMLGGPSVFIFPPKPKDTLLIARTPEVTCVVVDLDPEDPEVQISWFVDGKQMQTAKTQPREEQFNGTYRVVSVLPIGHQDWLKGKQFTCKVNNKALPSPIERTISKARGQAHQPSVYVLPPSREELSKNTVSLTCLIKDFFPPDIDVEWQSNGQQEPESKYRTTPPQLDEDGSYFLYSKLSVDKSRWQRGDTFICAVMHEALHNHYTQESLSHSPGK
modifications: Wild-type canine IgG-B Fc , Protein A +, C1q +, CD16 +
notes: wild-type canine IgG-B Fc polypeptide
With B3 the “Protein A binding affinity” value (Protein A) was “has Protein A binding affinity”, the “binding affinity to C1q” value (C1q [1]) was “bind to C1q” and the CD16 binding activity (CD16) was “have CD16 binding activity”.

B4: fusion protein comprising variant canine IgG-B Fc K(93)R: fusion protein comprising variant canine IgG-B Fc K(93)R (SEQ ID NO: 78); fusion partner not stated (protein)
chain: B3 chain with K93R
modifications: left off: a dimerising Fc or GST
In the case of B4, the “binding to human C1q” value (C1q [3]) is reported as “Reduced binding”.

B5: canine IgG-C Fc: wild-type canine IgG-C Fc polypeptide (protein)
chain: PGCGLLGGPSVFIFPPKPKDILVTARTPTVTCVVVDLDPENPEVQISWFVDSKQVQTANTQPREEQSNGTYRVVSVLPIGHQDWLSGKQFKCKVNNKALPSPIEEIISKTPGQAHQPNVYVLPPSRDEMSKNTVTLTCLVKDFFPPEIDVEWQSNGQQEPESKYRMTPPQLDEDGSYFLYSKLSVDKSRWQRGDTFICAVMHEALHNHYTQISLSHSPGK
modifications: Wild-type canine IgG-C Fc , Protein A - , C1q +, CD16 +
notes: wild-type canine IgG-C Fc polypeptide
For B5, the “Protein A binding affinity” value (Protein A) was “weak or no measurable Protein A binding affinity”, the “Protein A Binding” value (Protein A) was “−” and the “binding affinity to C1q” value (C1q [1]) was “bind to C1q”. The CD16 binding activity (CD16) was “have CD16 binding activity”.

B6: GLP1-G8_I_WTfeIgG2: Formula I contiguous polypeptide: GLP1-G8 (7-35), flexible linker, wildtype feline IgG2 Fc (protein)
chain: HGEGTFTSDVSSYLEGQAAKEFIAWLVKGGGGSGGGGSGGGGSGGGGSPKTASTIESKTGEGPKCPVPEIPGAPSVFIFPPKPKDTLSISRTPEVTCLVVDLGPDDSNVQITWFVDNTEMHTAKTRPREEQFNSTYRVVSVLPILHQDWLKGKEFKCKVNSKSLPSAMERTISKAKGQPHEPQVYVLPPTQEELSENKVSVTCLIKGFHPPDIAVEWEITGQPEPENNYQTTPPQLDSDGTYFLYSRLSVDRSHWQRGNTYTCSVSHEALHSHHTQKSLTQSPGK
modifications: Synthetic GLP1-G8_I_WTfeIgG2
notes: Formula I contiguous polypeptide: GLP1-G8 (7-35), flexible linker, wildtype feline IgG2 Fc
With B6 the “Mean Melting Point Temperature (Tm)” value ([2]; pH 5) was 48.5 °C, the “Mean Melting Point Temperature (Tm)” value ([2]; pH 6) was 56.9 °C and the “Mean Melting Point Temperature (Tm)” value ([2]; pH 7) was 59.9 °C. The “Mean Melting Point Temperature (Tm)” value ([2]; pH 8) was 59 °C.

B7: canine IgG-D Fc: wild-type canine IgG-D Fc polypeptide (protein)
chain: PVPESLGGPSVFIFPPKPKDILRITRTPEITCVVLDLGREDPEVQISWFVDGKEVHTAKTQPREQQFNSTYRVVSVLPIEHQDWLTGKEFKCRVNHIGLPSPIERTISKARGQAHQPSVYVLPPSPKELSSSDTVTLTCLIKDFFPPEIDVEWQSNGQPEPESKYHTTAPQLDEDGSYFLYSKLSVDKSRWQQGDTFTCAVMHEALQNHYTDLSLSHSPGK
modifications: Wild-type canine IgG-D Fc , Protein A -, C1q -, CD16
notes: wild-type canine IgG-D Fc polypeptide
In the case of B7, the “Protein A binding affinity” value (Protein A) is reported as “weak or no measurable Protein A binding affinity”, the “Protein A Binding” value (Protein A) is reported as “−” and the “binding affinity to C1q” value (C1q [1]) is reported as “weak or no measurable binding affinity to C1q”. For the same molecule, the “C1q Binding” value (C1q [1]) was “−” and the “CD16 Binding” value (CD16) was “−”.
